Experimental data published in publication PMC6760453, “Conformational characterization of full-length X-chromosome-linked inhibitor of apoptosis protein (XIAP) through an integrated approach” (IUCrJ, 2019).

Target: the molecule itself
Experiment: EPR-DEER; Q-band (34 GHz) four-pulse DEER at 50 K on MTSL-labelled XIAP; dimer concentration 15 uM; 20 mM Tris pH 7.4

B1: XIAP C202R1 (XIAP C12A, C213G, C351S labelled with MTSL nitroxide on Cys202) (natural protein, human, UniProt P98170 1-497, looked up)
chain: MTFNSFEGSKTAVPADINKEEEFVEEFNRLKTFANFPSGSPVSASTLARAGFLYTGEGDTVRCFSCHAAVDRWQYGDSAVGRHRKVSPNCRFINGFYLENSATQSTNSGIQNGQYKVENYLGSRDHFALDRPSETHADYLLRTGQVVDISDTIYPRNPAMYSEEARLKSFQNWPDYAHLTPRELASAGLYYTGIGDQVQCFCCGGKLKNWEPGDRAWSEHRRHFPNCFFVLGRNLNIRSESDAVSSDRNFPNSTNLPRNPSMADYEARIFTFGTWIYSVNKEQLARAGFYALGEGDKVKCFHCGGGLTDWKPSEDPWEQHAKWYPGCKYLLEQKGQEYINNIHLTHSLEESLVRTTEKTPSLTRRIDDTIFQNPMVQEAIRMGFSFKDIKKIMEEKIQISGSNYKSLEVLVADLVNAQKDSMQDESSQTSLQKEISTEEQLRRLQEEKLCKICMDRNIAIVFVPCGHLVTCKQCAEAVDKCPMCYTVITFKQKIFMS
modifications: MTSL nitroxide spin label on Cys202
notes: Mutations were introduced into the WT XIAP gene; also called XIAP C202-MTSL
B1: binds.
